{"source": "paper PMC4300558", "about": "(Cell Communication and Signaling : CCS, 2015)", "molecules": {"B1": {"name": "human prolactin (ligand, UniProt P01236 29-227, looked up)", "chain": "LPICPGGAARCQVTLRDLFDRAVVLSHYIHNLSSEMFSEFDKRYTHGRGFITKAINSCHTSSLATPEDKEQAQQMNQKDFLSLIVSILRSWNEPLYHLVTEVRGMQEAPEAILSKAVEIEEQTKRLLEGMELIVSQVHPETKENEIYPVWSGLPSLQMADEESRLSAYYNLLHCLRRDSHKIDNYLKLLKCRIIHNNNC", "notes": "prolactin, human; Labelled with cy5 in the internalization experiment; also called hPRL; PRL"}, "B2": {"name": "synthetic antibody (sAB) A8 (Fab, V domains shown)", "VH": "EVQLVESGGGLVQPGGSLRLSCAASGFNFSSSSMHWVRQAPGQGLEWVAYISPYYGSTSYADSVKGRFTISADTSKNTAYLQMNSLRAEDTAVYYCARSYGYVYWNAYSSGMDYWGQGTLVTVSS", "VL": "DIQMTQSPSSLSASVGDRVTITCRASQSVSSAVAWYQQKPGKAPKLLIYSASSLYSGVPSRFSGSRSGTDFTLTISSLQPEDFATYYCQQYYSYYYPFTFGQGTKVEIK", "notes": "Fab scaffold before loop H1; heavy chain loop 1 (H1), randomized loop; Fab scaffold between H1 and H2; heavy chain loop 2 (H2), randomized loop; Fab scaffold between H2 and H3; heavy chain loop 3 (H3), randomized loop; Fab scaffold after H3 (rest of VH and CH1); Fab scaffold before loop L3; light chain loop 3 (L3), randomized loop; Fab scaffold after L3 (rest of VL and CL); Only the four …"}}, "key": {"[1]": {"target": "prolactin receptor (Homo sapiens) (UniProt P16471)", "details": "cited from earlier work"}, "[2]": {"target": "prolactin receptor (Homo sapiens) (UniProt P16471)", "details": "cited from earlier work", "remark": "listed apart in the source"}, "[3]": {"target": "T1, extracellular domain of the human prolactin receptor (human, UniProt P16471 25-234, biotin (site not stated; in the phage ELISA))", "T1 chain": "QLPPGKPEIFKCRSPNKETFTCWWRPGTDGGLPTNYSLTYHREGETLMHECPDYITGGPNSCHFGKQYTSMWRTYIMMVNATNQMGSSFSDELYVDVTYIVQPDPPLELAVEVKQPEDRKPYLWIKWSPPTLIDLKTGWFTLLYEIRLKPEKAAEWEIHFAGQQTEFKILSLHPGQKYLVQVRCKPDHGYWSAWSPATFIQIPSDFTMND", "assay": "ELISA; competition with phage-displayed sAB A9"}, "[4]": {"target": "T2, extracellular domain of the human prolactin receptor (human, UniProt P16471 25-234, biotin (site not stated; in the phage ELISA))", "T2 construct": "prolactin receptor, human, extracellular domain (two tandem fibronectin domains FN1 and FN2); No methods in the main text; also called hPRL-R; hPRL-R ECD", "T2 sequence (looked up)": "T1 chain", "assay": "ELISA; competition phage ELISA; biotinylated receptor immobilised on streptavidin plates; hGH or PRL titrated against phage-displayed sAB", "details": "both partners purified"}, "[5]": {"target": "T1, extracellular domain of the human …", "assay": "ELISA; competition with phage-displayed sAB A10"}, "[6]": {"target": "T1, extracellular domain of the human …", "assay": "ELISA; competition with phage-displayed sAB A8"}, "[7]": {"target": "T3, extracellular domain of the human prolactin receptor (human, UniProt P16471, biotin (site not stated; in the phage ELISA))", "T3 construct": "prolactin receptor, human, extracellular domain (two tandem fibronectin domains FN1 and FN2); No methods in the main text; also called hPRL-R; hPRL-R ECD", "assay": "SPR; Biacore 2000; dissociation constant calculated from the on and off rates", "details": "both partners purified"}}, "note": "Like-named read-outs stand apart in the source and are kept apart here."}
{"molecule": "growth hormone (from UniProt P01241)", "values": [{"measurement": "Kd", "setting": "[1]", "result": 1, "unit": "nM"}]}
{"molecule": "prolactin (from UniProt P01236)", "values": [{"measurement": "Kd", "setting": "[2]", "result": 6, "unit": "nM"}]}
{"molecule": "B1", "values": [{"measurement": "IC50", "setting": "[3]", "result": 13, "unit": "nM"}, {"measurement": "binding result", "setting": "[4]", "result": "binds"}, {"measurement": "IC50", "setting": "[5]", "result": 9, "unit": "nM"}, {"measurement": "IC50", "setting": "[6]", "result": 11, "unit": "nM"}]}
{"molecule": "B2", "values": [{"measurement": "Kd", "setting": "[7]", "result": 5.6, "unit": "nM"}, {"measurement": "koff", "setting": "[7]", "result": 0.00054, "unit": "s⁻¹"}, {"measurement": "kon", "setting": "[7]", "result": 96000, "unit": "M⁻¹ s⁻¹"}]}
